Measured values taken from patent US20250283871A1, “COMPOSITIONS AND METHODS FOR MODULATING THE INTERACTION BETWEEN SS18-SSX FUSION ONCOPROTEIN AND NUCLEOSOMES” (Dana-Farber Cancer Institute, Inc., priority 2020, published 2025).
Residue numbers refer to the chain shown, from its start. Names and notes keep the numbering of the source.

Assays:
Type in all cases: cell-based, human
[1] = system: BAF complex components; assay: anti-SMARCA4 (BRG1) IP mass spectrometry (Tables 7A-7C); conditions: Aska-SS cells -/+ shSSX
Procedure: Peptide abundance normalized to SMARCA4 abundance. […] SMARCC1, SS18, GFP, SMARCB1, and TBP levels are shown. […] T indicates 0-40 min timecourse; n=3 experimental replicates at each time point; error bars represent standard deviation.
Nuclear extracts were quantified by Bradford assay and 150-200 μg of protein was incubated with 2 μg of antibody in Buffer EB300 (50 mM Tris pH 7.5, 0.1% NP-40, 1 mM EDTA, 1 mM MgCl2, […] with protease inhibitor (Roche, C756U27), 1 mM DTT and 1 mM phenylmethylsulfonyl fluoride (PMSF)) overnight at 4° C. Each sample was then incubated with Protein G Dynabeads® (Thermo Scientific) for 2-3 hours. Beads were washed three times with Buffer EB300 followed by elution with 20 μL of elution buffer (NuPage™ LDS buffer (2×) (Life Technologies) containing 100 mM DTT and water).

[2] = system: Barr bodies (inactive X); assay: Immunofluorescence, Barr body localization; conditions: RING1A/1B-dKO HEK-293T cells
Procedure: Immunofluorescent images were obtained as previously described (Daou et al. (2011) Pro. Nat. Acad. Sci. U.S.A 108:2747-2752). Following lentiviral infection and/or drug treatment, cells were prepared by fixation in 3% PFA-PBS and then were permeabilized with PBS 0.1% NP40. Following incubation with primary antibodies, the Anti-rabbit Alexa Fluor® 594 and Anti-mouse Alexa Fluor® 488 (Life Technologies) secondary antibodies were used for visualization. Staining with 4′,6-diamidino-2-phenylindole (DAPI) was used to visualize nuclei. Images were acquired using Zeiss Axio Imager Z2 microscope and images were processed using ImageJ program (NIH).

[3] = system: H2A K119Ub; assay: Immunoblot of H2A K119Ub deposition in RING1A/B dKO 293T cells rescued with RING1B variants; conditions: RING1A/1B-dKO HEK-293T cells
Procedure: Detection of proteins by western blot (WB) analysis was achieved using standard protocols with primary antibodies (Table 4). […] The membranes were then blocked in 5% milk and incubated with primary antibody in PBST over night at 4° C. Following incubation with the primary antibody, membranes were washed 3× in PBST, incubated with IRDye® (LI-COR Biosciences) secondary antibodies for 3 hours, washed 3× in PBST with a final PBS wash, and then visualized by the LI-COR Odyssey® Imaging System (LI-COR Biosciences).

B1: BCL7B: BAF complex subunit quantified in the IP MS (protein, UniProt Q9BQE9 1-202, looked up)
B-cell CLL/lymphoma 7 protein …: MSGRSVRAETRSRAKDDIKKVMAAIEKVRKWEKKWVTVGDTSLRIFKWVPVTDSKEKEKSKSNSSAAREPNGFPSDASANSSLLLEFQDENSNQSSVSDVYQLKVDSSTNSSPSPQQSESLSPAHTSDFRTDDSQPPTLGQEILEEPSLPSSEVADEPPTLTKEEPVPLETQVVEEEEDSGAPPLKRFCVDQPTVPQTASES
- Aska (shControl)/Aska (shSS18-SSX) LFQ Intensity (Norm to SMARCA4 Rep 1) ([1]; Rep 1): 1.339
- Aska (shControl)/Aska (shSS18-SSX) LFQ Intensity (Norm to SMARCA4 Rep 2) ([1]; Rep 2): 1.126

B2: WT RING1B: wild-type RING1B re-expressed in RING1A/1B-dKO cells (protein, UniProt Q99496 2-336, looked up)
E3 ubiquitin-protein ligase …: SQAVQTNGTQPLSKTWELSLYELQRTPQEAITDGLEIVVSPRSLHSELMCPICLDMLKNTMTTKECLHRFCADCIITALRSGNKECPTCRKKLVSKRSLRPDPNFDALISKIYPSRDEYEAHQERVLARINKHNNQQALSHSIEEGLKIQAMNRLQRGKKQQIENGSGAEDNGDSSHCSNASTHSNQEAGPSNKRTKTSDDSGLELDNNNAAMAIDPVMDGASEIELVFRPHPTLMEKDDSAQTRYIKTSGNATVDHLSKYLAVRLALEELRSKGESNQMNLDTASEKQYTIYIATASGQFTVLNGSFSLELVSEKYWKVNKPMELYYAPTKEHK
- SS18-SSX / SSX localization after RING1B rescue [2]: able to completely rescue SSX localization

B3: R91E: ligase-deficient RING1 point mutant, E2 binding interface (protein, UniProt Q99496 2-336, looked up, variant R91E)
E3 ubiquitin-protein ligase …: B2 E3 ubiquitin-protein ligase … with R90E
- SS18-SSX / SSX localization after RING1B rescue [2]: unable to recruit SS18-SSX

B4: I53A/D56K: RING1B point mutant disrupting the E2 binding interface (protein, UniProt Q99496 2-336, looked up, variant I53A D56K)
E3 ubiquitin-protein ligase …: B2 E3 ubiquitin-protein ligase … with I52A, D55K
- SS18-SSX / SSX localization after RING1B rescue [2]: unable to recruit SS18-SSX

B5: I53A: widely-used RING1B I53A mutant (protein, UniProt Q99496 2-336, looked up, variant I53A)
E3 ubiquitin-protein ligase …: B2 E3 ubiquitin-protein ligase … with I52A
- SS18-SSX / SSX localization after RING1B rescue [2]: little effect on SSX targeting
- H2A ubiquitination [3]: only partially attenuated H2A ubiquitination
